{
  "source": "the nanobody polyreactivity screen of Harvey et al. (2022)",
  "data": [
    {"experiment": "yeast display, Sf9 membrane polyspecificity reagent, FACS + sequencing; frameworks hold sequencing errors", "method_in_brief": "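After 36–48 hours of galactose induction, yeast (Saccharomyces cerevisiae BJ5465) displaying a synthetic nanobody library were stained at 4 °C for 1 hour with 10% biotinylated, detergent-solubilized Sf9 membrane reagent. Streptavidin microbeads enriched the stained cells before FACS sorting into low and high (top ~1%) gates on anti-HA and streptavidin fluorescence. Each clone's polyreactivity label reflects its gate of origin.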", "values": [
      {"sequence": "QVQLVESGGGLVQAGGSLRLSCAASGIIFRNYAMGWYRPAPGKEREFVASITKRGGSTYYADSVKGRFTISRDNAKNTVYLQINSLKPEDTAVYYCNTQWYRGRTEYGYWGQGTQVTVSS", "polyreactivity (PSR sort gate)": "high polyreactivity"},
      {"sequence": "QVQLVDSGGGLVQAGGSLRLSCAASGRTYFWNAMGWYRQAPGKERELVAAITWSGGSTYYADSVKGRFTISRDNAKNTVYLQMNSLKPEDTAVYYCAAVVSDYVWRYEYWGQGTQVTVSS", "polyreactivity (PSR sort gate)": "low polyreactivity"},
      {"sequence": "QVQLVESGGGLVQAGGSLRLSCAASGSIFSSYAMGWYRQAPGKERELVAVITSGDSTNYADSVKGRFTISRDNAKNTVYLQMNSLKPEDTAVYYCAAGTQAHAYVVRPIEMDYWGQGTQVTVSS", "polyreactivity (PSR sort gate)": "low polyreactivity"},
      {"sequence": "QVQLVESGGGLVQAGGSLRLSCAASGSTFYRYAMGWYRQAPGKERELVAAIRGSGGRTYYADSVKGRFTISRDNAKNTVYLQMNSLKPEDTAVYYCAAYRGVSQKGDYWGEGTQVTVSS", "polyreactivity (PSR sort gate)": "high polyreactivity"},
      {"sequence": "QVQLVESGGGLVQAGGSLRLSCAASGIIFATYAMGWYRQAPGKERELVASISTGDSTNYADSVKGRFTISRDNAKNTVYLQMNSLKPEDTAVDYCNADSYPYYVYGSNDYWGQGTQVTVSS", "polyreactivity (PSR sort gate)": "low polyreactivity"},
      {"sequence": "QVQLVESGGGLVQAGGSLRLSCAASGGTFFYNAMGRYRQAPGKERELVAAINGGTSTNYADSVKGRFTISRDNAKNTVYLQMNSLKPEDTAVYYCAAVYRRLGRYDWYDYWGQGTQVTVSS", "polyreactivity (PSR sort gate)": "low polyreactivity"},
      {"sequence": "QVQLVESGGGLVQAGGSLRLSCAASGSTLYRYAMGWYRQAPGKERELVAAISSAGSTHYADSVKGRFTISRDNAKNNVYLQMKSLKPEDTAVYYCNAKGYLHRSRYDYWGQGTQVTVSS", "polyreactivity (PSR sort gate)": "high polyreactivity"},
      {"sequence": "QVQLVESGGGLVQAGGSLRLSCAASGIIFYGYAMGWYRQAPGKERELVAAISRSGGSTYYADSVKGRFTISRDNAKNTVYLQMNSLKPEDTAVYYCAASGVTYDYWGQGTQVTVSS", "polyreactivity (PSR sort gate)": "high polyreactivity"},
      {"sequence": "QVQLVESGGGLVQAGGSLRLSCAASGRTFSVYTMGWYRQAPGKERELVASINWSGGRTYYADSVKGRFTISRDNAKNSVYLQMNSLKPEDTAVYYCAATGWRTLYDYWGQGTQVTVSS", "polyreactivity (PSR sort gate)": "high polyreactivity"},
      {"sequence": "QVQLVESGGGLVQAGGSLRLSCAASGRIFGYYAMGWYRQAPGKERELVAAISSRGSRTYYADSVKGRFTISRDNAKNTVYLQMNSLKPVDTAVYYCATYDYWGQGTQVTVSS", "polyreactivity (PSR sort gate)": "high polyreactivity"},
      {"sequence": "QVQLVESGGGLVQAGGSLRLSCAASGSNFLYSAMGWYRQAPGKERELVAVISWSGVSTYYADSVKGRFTISRDNAKNTVYLQMNSLKPEDTAVYYCNTGNHYIRTYGYWGQGTQVTVSS", "polyreactivity (PSR sort gate)": "low polyreactivity"},
      {"sequence": "QVQLVDSGGGLVQAGGSLRLSCAASGITFTRYAMGWYRQAPGKERELVAAISSGGRTNYADSVKGRFTISRDNAKNTVYLQMNSLKREDTAVYYCNALYRARWGLGTQVTVSS", "polyreactivity (PSR sort gate)": "high polyreactivity"},
      {"sequence": "QDQHVESGGGLVQAGGSLRLSCAASGRISKRNVMGWYRPAPGKERELVACISSTGSTSYADSVKGRFTISRDNAKYTVYLQMNSLNPEDTAVYYCAARGQATYNWGQGTQVTVSS", "polyreactivity (PSR sort gate)": "high polyreactivity"},
      {"sequence": "QVQLQESGGGLVQEGGSLRLSCAASGNISPPADMGWYRQAPGKERELVASIGTGGTTNYADSVKGRCTISRDNAKNTVYLQMNSLKPDDTAVYYCAAVRYEYNPYDYWGQGTQVTVSS", "polyreactivity (PSR sort gate)": "low polyreactivity"},
      {"sequence": "QVQLVESGGGLVQAGGSLRLSCAASGSIFGVNAMGWYRQAPGKERELVAAISSGGSTNYADSVKGRFTISRDNAKNTVYLQMNSLKPEDTAVYYCAADTNTRSNYDYWGQGTQVTVSS", "polyreactivity (PSR sort gate)": "low polyreactivity"},
      {"sequence": "QVQLVESGGALVQAGGSLRLSCAASGSTLRANAMGWYRQAPGKERELVARITSGGSTYYADSVKGRFTISRDNAKNTVYFQMNSLKPEDTAVYYCAATYKLAYRRGYWGQGTQVTVSS", "polyreactivity (PSR sort gate)": "high polyreactivity"},
      {"sequence": "QVQHVESGGGLVQAGGSLRLSCAASGRIIWWYAMRRYRQPPGKERELVAVIDDSVGITYFADSVKGRFTISRDNAKNTVYLQMNSLKPVDTAVNYCARNVNAQKVLGGFDSWGKGTQVTVSS", "polyreactivity (PSR sort gate)": "low polyreactivity"},
      {"sequence": "QVQLVESGGGLVQAGGSLRLSCAASGFTFRYNAMGWYRQAPGKERELVATISWRGTSTYYADSVKGRFTISRDNAKNTVYLQMNSLKPEDTAVYYCAALGTVGYDYWGQGTQVTVSS", "polyreactivity (PSR sort gate)": "low polyreactivity"},
      {"sequence": "QDQLVESGGGLVQARGSLRLRCAASGFIFIFNAMGWYRPAPGKERELVAAIDTSDDSTYYADSVKGRFTISRDNGKNTVYLQLNSLKPEDTAVYYCAAEELSNYEYWGQGTQVTVSS", "polyreactivity (PSR sort gate)": "low polyreactivity"},
      {"sequence": "QVQLVESGGGLVQAGGSLRLSCDASGITLRTYSIGWYRQAPGKERELVAAISKSGDRTYYADSVKGRFTISRDNAKNTVYLQMNSLKPEDNAVYYCAKATNAQYLYDYWGQGTHVTVSS", "polyreactivity (PSR sort gate)": "low polyreactivity"},
      {"sequence": "QVQLVESGGGLVQAGGSLRLSCAASGGIFDDYAMGWYRQAPGKERELVAAISSSGGSTYYADSVKGRFTISRDNAKNTVYLQMNSLKPEDTAVYYCNADRRRRFGYWGQGTQVTVSS", "polyreactivity (PSR sort gate)": "high polyreactivity"},
      {"sequence": "QVQLVESGGGLVQAGGSLRLSCAASGSIFVGNAMGWYRQAPGKERELVAAISSSGGSTYYADSVKGRFTISRDYAKNSVYLQMNSLKPEYTAVYDCAADTYSTSGYYYWGQGTQVTVSS", "polyreactivity (PSR sort gate)": "low polyreactivity"},
      {"sequence": "QVQLVESGGGLVQAGGSLRLSCAASGLIFYGNAMGWYRQAPGKERELVADITGSSVRTYYADSVKGRFTISRDNAKNTDYLQMNSLKPEDTAVYYCAATYGYLYTGLSRYDYWGQGTQVTVSS", "polyreactivity (PSR sort gate)": "low polyreactivity"},
      {"sequence": "QDQLEESGGGLVQAGGSLRLSCAASGNIFPRNAMGWYRQAAGKERELVAAISASGDNTYYADSVKGRFTISRDNAKNTVYLQMNSLKPEDTAVYYCSAGTFYESIQPYESVAYYYWGQGTQVTVSS", "polyreactivity (PSR sort gate)": "low polyreactivity"},
      {"sequence": "QVQLVESGGGLVQAGGSLRLSCAASGRIFTWYTMGWYRQAPGKERELVAAINRGGSTTYADSVKGRFTISRDNAKNTVYLQMNSLKPEDTAVYSCAAYRYTSRVYSYWRGYDYWGQGTQVTVSS", "polyreactivity (PSR sort gate)": "high polyreactivity"},
      {"sequence": "QDQLVESGGGLVQAGGSLRLSCAASGLIFRHYAMGWSRQAPGKERELVAAITWSGGSTYYADSVKGRFTISRDNAKNTVYLQMNSLKAEDTAVYYCAAEGTGYSVGWQYGYWGQGTQVTVSS", "polyreactivity (PSR sort gate)": "low polyreactivity"},
      {"sequence": "QVQLVESGGGLVQAGGSLRLSCAASGITFHKYAMGWYRQAPGKESELVAAISSGGGTYYADSVKGRFTISRDNAKNTVYLQMNSLKPEDTAVYYCNADIEWLWVRYDYWGQGTQVTVSS", "polyreactivity (PSR sort gate)": "high polyreactivity"},
      {"sequence": "QVQLVESGGGLVQAGGSLRLSCAASGIIFEGKARGWYRQAPGTERELVAAISTSTGRTYYADSVKGRFTISRDNAKNTVYLQINSLKPEDTAVYYCAAYIRTTRFDYWGQGTQVTVSS", "polyreactivity (PSR sort gate)": "high polyreactivity"},
      {"sequence": "QVQLVESGGGLVQAGGSLRLSCAASGRIFAGNTKGWYRQAPGKERELVAAITSSGGSTYYADSVKGRFTISRDNANTTVYLQMNSLKPEDTAVYYPIVYYVKYYYWGQGTQVTVSS", "polyreactivity (PSR sort gate)": "high polyreactivity"},
      {"sequence": "QVQLVESGAGLVQDGGSLRLICAASGRTFTPYAMGRYRQAPGKEMEFVAAISIVGRTKYADSVKGRFTISRDNAKNTVYLQMNSLKPEDTEVYYCNAQDSRDRKFYWGYTRGHWGQGTQVTVSS", "polyreactivity (PSR sort gate)": "low polyreactivity"},
      {"sequence": "QVQLVESGGGLVQAGGSLRLSCAASGSIFYPYAMGWYRQATGKERELVAVITDTGSTYYADSVKGRFTISRDNAKNTVYLQMNSLKPEDTAVYYCYRTSYVKTPTKRYNYWGQGTQVTVSS", "polyreactivity (PSR sort gate)": "low polyreactivity"},
      {"sequence": "QVQLVESGGGLVEAGGSLRLSCAASGSTSRHNTMGWYRQAPGKERELVAAISGGGTTYYADSVKGRFTISRDNAKNTVYLQMNRLNPEDTAVDDCAAAFWGDYASSYRAGLDYWGQGTQETVSS", "polyreactivity (PSR sort gate)": "low polyreactivity"},
      {"sequence": "QVQLVESGGGLVQAGGSLRLSCAASGSTSYNAMGWYRQAPGKERELVAAISDGGGSTYYADSVKGRFTISRDNAKNTVYLQMNSLKPEDTAVYYCAADTITGDGYWAQGTQVTVSS", "polyreactivity (PSR sort gate)": "low polyreactivity"},
      {"sequence": "QVHLVESGGGLVQAGGSLRLSCAASGYTFQWYDRGWYRQAPGKERELVASISWRGGSTYYADSVKGRFTISRDNAKNTVYLQMNSLKPEDTAVYYCAASLWPDYEYVYWGQGTQVTVSS", "polyreactivity (PSR sort gate)": "low polyreactivity"},
      {"sequence": "QVHLVESGGGLVQAGGSLRLSCAASGRTFRSYAMGWYRQAPGKERELVAAISWSGGSTYYADSVKGRFTISRDNAKNTVYLQMNSLKPEDTAVYYCAASYFYFPYTSDEGYWGQGTQVTVSS", "polyreactivity (PSR sort gate)": "high polyreactivity"},
      {"sequence": "QVHLVESGGGLVQAGGSLRLSCAASGSIFSYYAMGWYRQAPGKERELVAAISQSGGSTYYADSVKGRFTISRDNAKNTVYLQMNSLKPEDTAVNYCNAGRGTFKRYTALQYWGQGTQVTVSS", "polyreactivity (PSR sort gate)": "low polyreactivity"},
      {"sequence": "QVQLVESGGGLVQAGGSLRLSCAASGSTFGHYGMGWYRQAPGKERELVAAISYSGGSTSYADSVKGRFTISRDNAKNTVYLQMNSLKPEDTAVYYCATVRKRRYDYWGQGTQVTVSS", "polyreactivity (PSR sort gate)": "low polyreactivity"},
      {"sequence": "QVQLVESGGGLVQAGGSLRLSCAASGSTFVTNVMGSYRQAPGKERELVAAISYSGGNTYYEDSVKGRFTISRDNSKNTVYLQRNSLNPEDTAVYYCDASYKQFKKMGYWGQGTQVTVSS", "polyreactivity (PSR sort gate)": "high polyreactivity"},
      {"sequence": "QVQLVESGGGLVQAGGSLRLTCAASGSTFSGYAMGWYRQAPGKERELVATISGGGSTYYADSVKGRFTISRDNAKNTVYLQMNILKPEDTAVYYCNAQGYGIFTSSLDYWGQGTQVTVSS", "polyreactivity (PSR sort gate)": "low polyreactivity"},
      {"sequence": "QVQLVESGGGLVQAGGSLRLSCAASGSTFPQNVMGWYRQAPGKERELVAAITRSAGSTYYADSVKGRFTISRDNAKNTVYLQMNSLKPEDTADYYCNTGRQRGDCWGQGTQVTVSS", "polyreactivity (PSR sort gate)": "high polyreactivity"},
      {"sequence": "QVQLVDSGGGLVQAGGSLRLSCAASGSTIVYYAKGWYRHAPGKERELVAVISDDGGTYYADSVKGRFTISRDNAKNTVYFQMNSLKPEDTAFYYCAKDYYGGAYYWYNDRSGDYWGQGTQVTVSS", "polyreactivity (PSR sort gate)": "low polyreactivity"}
    ]}
  ]
}
